The binders below were run against T1, human PD-L1 overexpressed on CHO cells (human, UniProt Q9NZQ7 19-290) (assay: cell-based or functional assay).
T1 sequence (Q9NZQ7 19-290): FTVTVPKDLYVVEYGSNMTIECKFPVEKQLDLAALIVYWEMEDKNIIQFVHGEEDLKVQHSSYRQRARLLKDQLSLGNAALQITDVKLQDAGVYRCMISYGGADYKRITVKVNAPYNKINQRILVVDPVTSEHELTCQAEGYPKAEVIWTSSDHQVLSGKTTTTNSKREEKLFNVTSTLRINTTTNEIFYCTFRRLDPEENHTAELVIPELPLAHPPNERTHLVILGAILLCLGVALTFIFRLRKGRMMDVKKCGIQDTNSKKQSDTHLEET

| Binder | EC50 (luciferase reporter luminescence, PD-1/PD-L1 Blockade Bioassay, CHO-PD-L1 + Jurkat-PD1 cells) |
| --- | --- |
| L1-R2-4 (antibody, V domains shown) VH: not shown VL: EIVLTQSPSSLSASVGDRVTITCLASQTIGTWLAWYQQKPGKSPQLLIYAASTLQSGVPSRFSGSGSGTDFTLTISSLQPEDVATYYCQQYYSTPRTFGQGTKVEIKR | 2.74 µg/mL |
| L1-R2-89 (antibody, V domains shown) VH: not shown VL: DIQMTQSPSSLSASVGDRVTITCLASQTIGTWLAWYQQKPGKSPQLLIYAASSLQSGVPSRFSGSGSGTDFTLTISSLQPEDVATYYCQQYYSTPYTFGQGTKVDIKR | 3.78 µg/mL |
| L1-R2-78 (antibody, V domains shown) VH: not shown VL: DIQMTQSPSSFSASTGDRVTITCRASQGISSYLAWYQQKPGKAPKLLIYAASRLQSGVPSRFSGSGSGTDFTLTISSLQAEDVAVYYCQQYYSTPYTFGQGTKVDIKR | 3.57 µg/mL |
| L1-R2-6 (antibody, V domains shown) VH: not shown VL: EIVLTQSPSSVSASVGDKLTMTCQASQDIGKHLNWYQQKPGKPPKLLIYGASNLKTGVPSRFSGTGSGTDFTLTISSLQPEDFATYYCQQSYTTPYTFGQGTRLEIKR | 3.92 µg/mL |
| L1-R2-18 (antibody, V domains shown) VH: not shown VL: EIVLTQSPSSVSASVGDRITITCRASQGIGSWLAWYQQKPGKAPSLLIYAASSLQSGVPSRFSGSGSGTDFTLTISSLQTEDVAVYYCQQYFSTPYTFGQGTKVDIKR | 5.09 µg/mL |
| L1-R2-85 (antibody, V domains shown) VH: not shown VL: DIQMTQSPSSLSASVGDRVTIPCRASQGIGKFLAWYQQKPGKAPSLLIYAASSLQSGVPSRFSGSGSGTDFTLTISSLQTEDVAVYYCQQYFSTPYTFGQGTKVDIKR | 5.22 µg/mL |

Target: T1, human PD-L1 overexpressed on CHO cells
Assay: cell-based or functional assay
Remark: another data set of the same source

| Binder | EC50 (luciferase reporter luminescence, PD-1/PD-L1 Blockade Bioassay, CHO-PD-L1 + Jurkat-PD1 cells) |
| --- | --- |
| L1-R2-4-71 (antibody, human IgG1, kappa, V domains shown) VH: EVQLVESGGGLVQPGGSLRLSCAASGFTFSDSWIHWVRQAPGKGLEWVGWISPYGGSTYYADSYRSRFTISADTSKNTAYLQMNSLRAEDTAVYYCARRHWPGGFDYWGQGTLVTVSS VL: EIVLTQSPSSLSASVGDRVTITCLASQTIGTWLAWYQQKPGKSPQLLIYAASTLQSGVPSRFSGSGSGTDFTLTISSLQPEDVATYYCQQYYSTPRTFGQGTKVEIKR | 0.382 µg/mL |
| L1-R2-4-36 (antibody, human IgG1, kappa, V domains shown) VH: EVQLVESGGGLVQPGGSLRLSCAASGFTFSDSWIHWVRQAPGKGLEWVGWISPYGGSTYYADDFRHRFTISADTSKNTAYLQMNSLRAEDTAVYYCARRHWPGGFDYWGQGTLVTVSS VL: EIVLTQSPSSLSASVGDRVTITCLASQTIGTWLAWYQQKPGKSPQLLIYAASTLQSGVPSRFSGSGSGTDFTLTISSLQPEDVATYYCQQYYSTPRTFGQGTKVEIKR | 0.148 µg/mL |
| L1-R2-4-46 (antibody, human IgG1, kappa, V domains shown) VH: EVQLVESGGGLVQPGGSLRLSCAASGFTFSDSWIHWVRQAPGKGLEWVGWISPYGGSTYYADSLGDRFTISADTSKNTAYLQMNSLRAEDTAVYYCARRHWPGGFDYWGQGTLVTVSS VL: EIVLTQSPSSLSASVGDRVTITCLASQTIGTWLAWYQQKPGKSPQLLIYAASTLQSGVPSRFSGSGSGTDFTLTISSLQPEDVATYYCQQYYSTPRTFGQGTKVEIKR | 0.224 µg/mL |
| L1-R2-4-47 (antibody, human IgG1, kappa, V domains shown) VH: EVQLVESGGGLVQPGGSLRLSCAASGFTFSDSWIHWVRQAPGKGLEWVGWISPYGGSTYYADHLSQRFTISADTSKNTAYLQMNSLRAEDTAVYYCARRHWPGGFDYWGQGTLVTVSS VL: EIVLTQSPSSLSASVGDRVTITCLASQTIGTWLAWYQQKPGKSPQLLIYAASTLQSGVPSRFSGSGSGTDFTLTISSLQPEDVATYYCQQYYSTPRTFGQGTKVEIKR | 0.389 µg/mL |
| L1-R2-4-55 (antibody, human IgG1, kappa, V domains shown) VH: EVQLVESGGGLVQPGGSLRLSCAASGFTFSDSWIHWVRQAPGKGLEWVGWISPYGGSTYYADGMRSRFTISADTSKNTAYLQMNSLRAEDTAVYYCARRHWPGGFDYWGQGTLVTVSS VL: EIVLTQSPSSLSASVGDRVTITCLASQTIGTWLAWYQQKPGKSPQLLIYAASTLQSGVPSRFSGSGSGTDFTLTISSLQPEDVATYYCQQYYSTPRTFGQGTKVEIKR | 0.401 µg/mL |

These binders were tested against T2, PD-L1-His-Biotin (human, UniProt Q9NZQ7 19-238, biotin-labelled (sites not given)) (assay: flow cytometry of yeast-displayed scFv with 1 nM PD-L1-His-Biotin, Streptavidin-PE).
T2 construct: also called PD-L1-His-Biotin antigen protein
T2 sequence (Q9NZQ7 other isoform, or with tags, fused parts or gaps): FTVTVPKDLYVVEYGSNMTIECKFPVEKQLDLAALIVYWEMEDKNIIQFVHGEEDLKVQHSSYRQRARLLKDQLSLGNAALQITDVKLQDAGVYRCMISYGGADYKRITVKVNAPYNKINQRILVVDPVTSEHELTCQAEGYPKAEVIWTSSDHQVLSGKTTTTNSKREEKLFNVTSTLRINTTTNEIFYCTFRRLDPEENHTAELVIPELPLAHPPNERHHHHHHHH
Protocol: (§1) The yeasts described above were incubated with 1 nM of PD-L1-His-Biotin antigen protein at room temperature for 1 h, washed 3 times with PBS at pH 7.4, then incubated with Streptavidin-PE fluorescent secondary antibody at room temperature for 30 min, and washed 3 times with PBS at pH 7.4. The fresh PBS was added, and loaded on the machine for assay.

| Binder | binding result |
| --- | --- |
| CP11-71 scFv (scFv, display fusion partner not described; VH at N terminus) scFv: EVQLVESGGGLVQPGGSLRLSCAASGFTFSDSWIHWVRQAPGKGLEWVGWISPYGGSTYYADSYRSRFTISADTSKNTAYLQMNSLRAEDTAVYYCARRHWPGGFDYWGQGTLVTVSSGGGGSGGGGSGGGGSEIVLTQSPSSLSASVGDRVTITCLASQTIGTWLAWYQQKPGKSPQLLIYAASTLQSGVPSRFSGSGSGTDFTLTISSLQPEDVATYYCQQYYSTPRTFGQGTKVEIK | binds |

Each binder was assayed against T2, PD-L1-His-Biotin (assay: flow cytometry of yeast-displayed scFv with 1 nM PD-L1-His-Biotin, Streptavidin-PE; positive rate %).
Protocol: as §1

| Binder | binding result |
| --- | --- |
| CP22-44 (scFv, also called CP22-44 scFv) scFv (VH - linker - VL, VH at the N terminus): EVQLVESGGGLVQPGGSLRLSCAASGLRPADSWIHWVRQAPGKGLEWVGWISPYGGSTYYADSVKGRFTISADTSKNTAYLQMNSLRAEDTAVYYCARRHWPGGFDYWGQGTLVTVSSGGGGSGGGGSGGGGSEIVLTQSPSSLSASVGDRVTITCLASQTIGTWLAWYQQKPGKSPQLLIYAASTLQSGVPSRFSGSGSGTDFTLTISSLQPEDVATYYCQQYYSTPRTFGQGTKVEIK | binds |
| CP22-45 (scFv, also called CP22-45 scFv) scFv (VH - linker - VL, VH at the N terminus): EVQLVESGGGLVQPGGSLRLSCAASNSHLRDSWIHWVRQAPGKGLEWVGWISPYGGSTYYADSVKGRFTISADTSKNTAYLQMNSLRAEDTAVYYCARRHWPGGFDYWGQGTLVTVSSGGGGSGGGGSGGGGSEIVLTQSPSSLSASVGDRVTITCLASQTIGTWLAWYQQKPGKSPQLLIYAASTLQSGVPSRFSGSGSGTDFTLTISSLQPEDVATYYCQQYYSTPRTFGQGTKVEIK | binds |
| CP21-59 (scFv, also called CP21-59 scFv) scFv (VH - linker - VL, VH at the N terminus): EVQLVESGGGLVQPGGSLRLSCAASSFSLKDSWIHWVRQAPGKGLEWVGWISPYGGSTYYADSVKGRFTISADTSKNTAYLQMNSLRAEDTAVYYCARRHWPGGFDYWGQGTLVTVSSGGGGSGGGGSGGGGSEIVLTQSPSSLSASVGDRVTITCLASQTIGTWLAWYQQKPGKSPQLLIYAASTLQSGVPSRFSGSGSGTDFTLTISSLQPEDVATYYCQQYYSTPRTFGQGTKVEIK | binds |
| CP22-40 (scFv, also called CP22-40 scFv) scFv (VH - linker - VL, VH at the N terminus): EVQLVESGGGLVQPGGSLRLSCAASGFTFSDSWIHWVRQAPGKGLEWVGWISPYGGSTYYADSVKGRFTISADTSKNTAYLQMNSLRAEDTAVYYCARRHWPGGLLPWGQGTLVTVSSGGGGSGGGGSGGGGSEIVLTQSPSSLSASVGDRVTITCLASQTIGTWLAWYQQKPGKSPQLLIYAASTLQSGVPSRFSGSGSGTDFTLTISSLQPEDVATYYCQQYYSTPRTFGQGTKVEIK | binds |

Source: patent US20230287126A1 (BIO THERA SOLUTIONS, published 2023)
